Source: US20220211860A1, “PEPTIDE DERIVATIVES AND CONJUGATES THEREOF FOR TREATING CANCER” (priority 2019, published 2022)

Tests used:
MDA-MB-231 [1] = test: In vitro uptake in TNBC cells versus normal breast cells (confocal LSM); format: cell-based, human; conditions: 1 μM, 18 h; MDA-MB-231 compared to normal breast cells (MCF-10A and HMEC)
Procedure: FIGS. 7A and 7B: In vitro uptake study of LD5-me-vc-PABC-MMAE in TNBC cell line and normal breast cells. (A) MDA-MB-231 as a TNBC cell model, MCF-10A and HMEC as normal breast cells were treated with 1 μM of LD5-me-vc-PABC-MMAE (LM) for 18 h. LM was stained using monoclonal primary antibody specific for LHRH and secondary antibody conjugated with Rhodamine and detected by LEICA SPE2 confocal LSM. (B) The LM signal intensity was measured by Fiji J software in normal breast cells (HMEC and MCF-10A) and TNBC cell model (MDA-MB-231). […] The signal intensity in these cell lines were assessed by one-way ANOVA followed by Tukey's multiple comparisons test (****p<0.0001). Error bars are standard deviations (STDV), n=8 (3 independent repeats).
The uptake of LD5-me-vc-PABC-MMAE by TNBC cells was examined using the TNBC cell line (MDA-MB-231) which overexpresses LHRH-R. The uptake was compared with normal breast cells (LHRH-R negative control). LD5-me-vc-PABC-MMAE was incubated with […] for 18 h, and intracellular uptake of the conjugate was monitored using confocal LSM (FIG. 7A).
This was supported by quantitative comparisons of the intracellular uptake of LD5-mc-vc-PABC-MMAE in LHRH-R positive and negative cells (FIG. 7B).

LHRH-R = biological target: T1, LHRH-R (Homo sapiens, UniProt P30968); test: Duolink proximity ligation assay (PLA) in MDA-MB-231; format: binding
T1 construct: endogenous in cells; host or cells: MDA-MB-231
T1 sequence (P30968 1-328): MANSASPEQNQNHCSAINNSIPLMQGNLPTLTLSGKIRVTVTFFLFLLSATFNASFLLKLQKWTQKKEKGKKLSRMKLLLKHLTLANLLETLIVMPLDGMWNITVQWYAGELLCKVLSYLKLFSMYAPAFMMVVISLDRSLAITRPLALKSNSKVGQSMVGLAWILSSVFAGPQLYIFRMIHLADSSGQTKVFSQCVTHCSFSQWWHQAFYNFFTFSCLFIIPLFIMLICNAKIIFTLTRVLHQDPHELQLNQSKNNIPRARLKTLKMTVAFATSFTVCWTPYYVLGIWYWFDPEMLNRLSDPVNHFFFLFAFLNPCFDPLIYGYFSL
Procedure: FIG. 6: Proximity ligation assay was used to show the protein-protein interaction between LHRH-R and LHRH in MDA-MB-231 (TNBC cell model) treated with LD5-me-vc-PABC-MMAE (1 μM) compared to negative control (PBS). Stained nucleus (DAPI blue) and PLA signal (TexasRed) were detected by LEICA SPE2 confocal LSM.
The binding affinity of the LD5-me-vc-PABC-MMAE conjugate to LHRH receptors was investigated by DuoLink assay.
Proximity ligation assay (PLA) was used to determine the interaction between LHRH-R and LHRH in LD5-mc-vc-PABC-MMAE treated cells. Duolink® Proximity Ligation Assay (PLA) allows in situ detection of endogenous proteins, protein modifications, and protein interactions with high specificity and sensitivity. Protein targets can be readily detected and localized with single molecule resolution in unmodified cells and tissues. Typically, two primary antibodies raised in different species are used to detect two unique protein targets. PLA reagents were added to the fixed MDA-MB-231 cells after incubating these cells with the primary antibody specific for LHRH-R and LHRH.

female NOD/SCID mice = test: Phase I: single-dose MTD in mice; format: in vivo; conditions: for Body Weight: individual animals
Procedure: LD5-(mc-vc-PABC)-MMAE was administered IV to groups of 3 female NOD/SCID mice (23±3 g). Animals received an initial dose of 3 mg/kg. If the animals survived for 72 hours, the dose for the next cohort was increased. If one or more animals died, the dose for the next cohort was decreased. The testing stopped when all animals survived at the upper bound, or when two or three dose levels had been tested or when the upper or lower bound had been reached. […] Body weights were recorded pre-dose and at 72 hours after treatment. The animals were observed and mortality noted daily after compound administration for 3 days. Gross necropsy was performed on all animals without tissue collection. […] No mortality and body weight changes were noted, signifying the dose level was tolerated (Tables 2 and 3). The dose at 10 mg/kg was then determined for the following repeat-dose MTD study (Phase II).

MDA-MB-231 [2] = test: Uptake after silencing LHRH-R gene in MDA-MB-231; format: cell-based, human; conditions: MDA-MB-231, LHRH-R siRNA, 1 μM, 18 h
Procedure: FIGS. 10A and 10B: Uptake of LD5-me-vc-PABC-MMAE (LM) after silencing LHRH-R in MDA-MB-231 cells. The cells were treated with LHRH-R siRNA and co-transfected with fluorescent labelled siRNA negative control as transfection efficiency signal (FAM-transfection control). LHRH-R negative control refers to MDA-MB-231 cells that were not transfected with LHRH-R siRNA and FAM-transfection control. (A) Silenced LHRH-R cells and negative control cells were treated with LM (1 μM) for 18 h and LM signal was detected by immunocytochemistry with specific LHRH binding of primary antibody labelled by Rhodamine-conjugated secondary antibody. Immunocytochemical images were captured by LEICA SPE2 confocal LSM. (B) The LM signal intensity in both silenced LHRH-R and negative control was measured by Fiji J software. […] The data was analysed by unpaired t-test with Welch's correction (**** p<0.0001). Error bars are standard deviations (STDV), n=8 (3 independent repeats).
To further examine the role of LHRH-R in the uptake of LD5-me-vc-PABC-MMAE, LHRH-R expression was blocked by silencing their gene in MDA-MB-231 (TNBC cell model). This study was performed by co-transfection of siRNAs (RNAi-Mate transfection reagent and siRNA, GNRHR-homo-2242, GNRHR-homo-2701, and scrambled RNA were from GenePharma) and a fluorescently labelled negative control siRNA (FAM transfection efficiency control was from GenePharma).

Q: Which intracellular uptake (MDA-MB-231 [1]) does the source give for CCNC(=O)[C@@H]1CCCN1C(=O)[C@H](CCCNC(=N)N)NC(=O)[C@H](CC(C)C)NC(=O)[C@@H](CCCCNC1CC(=O)N(CCCCCC(=O)N[C@H](C(=O)N[C@@H](CCCNC(N)=O)C(=O)Nc2ccc(COC(=O)N(C)[C@H](C(=O)N[C@H](C(=O)N(C)[C@@H]([C@@H](C)CC)[C@@H](CC(=O)N3CCC[C@H]3[C@H](OC)[C@@H](C)C(=O)N[C@H](C)[C@@H](O)c3ccccc3)OC)C(C)C)C(C)C)cc2)C(C)C)C1=O)NC(=O)[C@H](Cc1ccc(O)cc1)NC(=O)[C@H](CO)NC(=O)[C@H](Cc1c[nH]c2ccccc12)NC(=O)[C@H](Cc1c[nH]cn1)NC(=O)[C@@H]1CCC(=O)N1 (some centres unmarked) [LD5-mc-vc-PABC-MMAE] here?
A: significantly higher uptake

Q: What about the “binding affinity to LHRH receptors (DuoLink assay)” value (LHRH-R; MDA-MB-231, 1 μM) of the same molecule?
A: high binding affinity

Q: What about the “interaction between LHRH-R and LHRH (PLA signal)” value (LHRH-R; fixed MDA-MB-231 cells, qualitative) of the same molecule?
A: confirmed interactions between LHRH-R and its ligand

Q: What about the “adverse effects (acute toxic symptoms, autonomic effects)” value (female NOD/SCID mice; 3 and 10 mg/kg IV, 15 minutes, 1 and 2 hours) of the same molecule?
A: No significant adverse effects

Q: And the “Mortality (death/test)” value (female NOD/SCID mice; IV 3 mg/kg, 15 min)?
A: 0/3

Q: And the “Mortality (death/test)” value (female NOD/SCID mice; IV 3 mg/kg, 1 hr)?
A: 0/3

Q: What about the “Mortality (death/test)” value (female NOD/SCID mice; IV 3 mg/kg, 2 hr) of the same molecule?
A: 0/3

Q: What about the “Mortality (death/test)” value (female NOD/SCID mice; IV 3 mg/kg, 24 hr) of the same molecule?
A: 0/3

Q: And the “Mortality (death/test)” value (female NOD/SCID mice; IV 3 mg/kg, 48 hr)?
A: 0/3

Q: And the “Mortality (death/test)” value (female NOD/SCID mice; IV 3 mg/kg, 72 hr)?
A: 0/3

Q: What about the “Body Weight” value (female NOD/SCID mice; IV 3 mg/kg, 72 hr) of the same molecule?
A: 21 g

Q: And the “Body Weight” value (female NOD/SCID mice; IV 3 mg/kg, time 0 (pre-dose))?
A: 21 g

Q: And the “Mortality (death/test)” value (female NOD/SCID mice; IV 10 mg/kg, 15 min)?
A: 0/3

Q: What about the “Mortality (death/test)” value (female NOD/SCID mice; IV 10 mg/kg, 1 hr) of the same molecule?
A: 0/3

Q: What about the “Mortality (death/test)” value (female NOD/SCID mice; IV 10 mg/kg, 2 hr) of the same molecule?
A: 0/3

Q: And the “Mortality (death/test)” value (female NOD/SCID mice; IV 10 mg/kg, 24 hr)?
A: 0/3

Q: And the “Mortality (death/test)” value (female NOD/SCID mice; IV 10 mg/kg, 48 hr)?
A: 0/3

Q: And the “Mortality (death/test)” value (female NOD/SCID mice; IV 10 mg/kg, 72 hr)?
A: 0/3

Q: And the “Body Weight” value (female NOD/SCID mice; IV 10 mg/kg, time 0 (pre-dose))?
A: 20 g

Q: What about the “uptake after silencing the LHRH-R gene” value (MDA-MB-231 [2]) of the same molecule?
A: significantly reduced
